From PMC7347655, “Mutational analysis of the essential lipopolysaccharide-transport protein LptH of Pseudomonas aeruginosa to uncover critical oligomerization sites” (Scientific Reports, 2020)

B1: wild-type LptH (natural protein, Pseudomonas aeruginosa, UniProt Q9HVV7 25-175, looked up)
chain: LPSDREQPIRVQADSAELDDKQGVAVYRGDVVVTQGSTKLTGNTVTLKQDKNGDIEVVTSVGKPAYYEQKPAPDKDVTKAYGLTIQYFVTQNRVVLIDQAKVIQEGNTFEGEKIVYDTQRQIVNAGRATGSQVTSPRPRIDMVIQPKKKAQ
notes: Cloned NdeI/HindIII into pET28b; the vector's linker between the His tag and the protein is not described; no tag removal is described; also called LptH6His; PA4460; not shown: His6, N-terminal, kept
B2: LptH_β15mut (natural protein)
chain: LPSDREQPIRVQADSAELDDKQGVAVYRGDVVVTQGSTKLTGNTVTLKQDKNGDIEVVTSVGKPAYYEQKPAPDKDVTKAYGLTIQYFVTQNRVVLIDQAKVIQEGNTFEGEKIVYDTQRQIEPDGRATGSQVTSPRPRIDMVIQPKKKAQ
notes: not shown: His6, N-terminal, kept
B3: LptH_β15del (natural protein)
chain: LPSDREQPIRVQADSAELDDKQGVAVYRGDVVVTQGSTKLTGNTVTLKQDKNGDIEVVTSVGKPAYYEQKPAPDKDVTKAYGLTIQYFVTQNRVVLIDQAKVIQEGNTFEGEKIVYDTQRQIGRATGSQVTSPRPRIDMVIQPKKKAQ
notes: As m1 with a 3-residue deletion in strand β15; aggregation prevented concentrations above 0.9 mg/mL; not shown: His6, N-terminal, kept

Target: the molecule itself
Assay: SEC; 100 uL of purified protein (0.9-2.0 mg/mL, a stated concentration for each variant) on a TSK-GEL G3000PWXL column, 20 mM Tris-HCl pH 8.0, 250 mM NaCl, 0.7 mL/min, detection at 280 nm; oligomerization state estimated from the apparent MW by a calibration curve

| Protein | stoichiometry N |
| --- | --- |
| B1 | 2 |
| B2 | 2 |
| B3 | 2 |
